# Laboratory results published in the DeepSol protein solubility set.
# Assay: soluble on expression in E. coli; label from the status in PepcDB or PDB records
row,Sequence,soluble on expression in E. coli
1,MAHHHHHHMIHEMCFQELSDSILPAHNGEVALMLATGSPFTDAMTTAAPQQDVWGSSLFSLPELGTDLHSEVSQQNIEKSGSNLNCELQTASHVCNLAPVTFKEEQNKTRITESNTTFGPTPSMHCLSFGSVNAQSNIPSIANSTPNPLACSMVCTSQAPQLSFSSLMSIGNTTVPANSSSTTNGLAYQQASPVATVSNGIPAFFTTAQNGGNVVMFAPSNSQQTLCIPTPVPTMIPYYVIAPPQHTVEVNGTMAYSSLSTAPQSMPPVMCGPWTTNTGSVVGSGAPTPVSVSSASGVMPQTFVTSVTTKPSQPVSFSFPSGDSNQNSASASSIIPLCADGSGNQKAPPRGSPPSYDSLRIQITKRRQPSGRQRSGTNVHGSLQGICSYYSYNLSAALKQYEHPDFHVAKPVEQVLPVFVQMFPCELRDRTIIVLNRVVEATCGPDIATVVGIEPRSETSFITLIRTNDVWHLIHKLRCRVLMDRHGFWYAENMEQYLRLKEYCESVRRLPQQIRHFQTDGLPCMPLVVELSRSVNAASVTSLPAPPSFDEVAPIATMERHGRVATLTGSNEDGSSSPRETGEVINAAAVPLPSGVGRV,not soluble
2,MAHHHHHHMITSINVIHELLTTIYCRIFSRKRKDIYKYDVLLYLQDYYYFDVIKRVSDDIKELDDDSITIEINSNEYEVILNGDKSSSFFNHTFENFCIHRGYDIIKDKTYSNEYEKRIDFLHELLCDLLCLLLNENNEKKGKEKEKEEKKNNMNKNMNYNKERVINKMYHNNNHLFKKFWENIQDILKEINILNENKYVEDINEENIKDILYIQKEKLIKNEDIIIKKNVDINKITLLNNLIEKYNNEYKYRFYYIFLNNYLTIQTMFTSNMIYLYSYEIQNIIHKIIKMKINLYQPLTIYDVLAFQYDQIMFHKSSYMNLISPVKKIKILNNIVERGGDPDEFSKKVIIKDVINANISLKAKFNKARTQNDNNWGNNKYKVRNYYDNNRR,soluble
3,MAHHHHHHMKALVFLEVEESATGSNTARSTATQMHALFAGLVEMSMHVYLEKDASLAAASGAAEARVLLLSTVVKDLLSVREQSRSSPAQYVRYVQRMLIARTPVVPYITTQLLQDCQSQTALLTTSHGPTVLGAKRGDPAECFSVVHPRRYR,not soluble
4,MAHHHHHHMKCFLIVDAQNDFLPTGSFNSRDDYMDTLNKINAIRLRLHNCTEKDLLKLSNCKHLMKYQPDKLLKENIVQYHQCNNDIDDDEREGDILIFPTDHRVMTCLSNRLSASNICSDLHKQTAQGTANGVERIPNNNNNGFSHTKEGTSHNGTHMHNHHPDESHQKNVETNDVETNNLARRNRSKESTNSENAKFALNILSVDYHPPCHISFAETHRILFEQIKRNKGTKNSSAEINIDRVTELSSHAQVNSSVASEEEAEGAHAEEAECDDEGTPSLDHTNEADGGEVQEPPQADLLQSAFLKKNKIFNLTDVMKNIQKIKSTRYIYKNVNSVSDIKEYSKLNFLNEWIDVWPIHCVRNTPGCKVHPNLIRHINDIVIKKADTENHDSHTIFENSEINQKILNLLKKQNIKSVYICGFIFEYCVKETALSFFNLGFDTYIVEDATAYLFGREEDKDNLKKKGIKFVNSSTMFA,not soluble
5,MAHHHHHHMKFDKRECINVDLTSQISEQDVTQSVSKGEKKRDSLPQNEKESELSAEKESQMSQPKADEANLKRENSPLSEPNRKGTSVNKKNDCETSHTDKETNLKEYYKDLPTVIIVIGMAGSGKTTYVGSLYNYLKVEKKKKVYTMNLDPAVKYVQYPVNIDIRDSIKYHEIMKEYKLGPNGAIMTCLNLFATRFDKVIEILEKRKNKLHYIIVDTPGQIEVFNWSASGNIILETLSVSFPVVINYIIDTVRCERPITFMSNMLYACSVLYKARLPFLACFNKVDIIKHDKCIEWMKDYDSFNDDVIHDESYMASFSRSCALMINEFYEGIKTVGISSKTNEGFNSILKNLELLKEEYINEYVTSIEKQMKRIKRKKEKDIKLKMENLLIEKQKDLSSSKNKSVN,not soluble
6,MAHHHHHHMKKACKLASECLKLCLENSKEGITTDIIDNMAYDFYIKNNAYPAGLNFHSFPKSICASPNEVVCHGIPNLRKLQRGDIITYDCTVFLDGVFGDCAGTVGIGEISERHKKLMDVSKECLYKAISICRDGQLFSEIGRIITEHANKNGFNVIKDFCGHFIGTHMHMYPLIEHHYPNSHNNHRMKKGQIFTIEPILSEGSINIYTWKDKWTVCTNDNSFCSQWEHTILVLDNYAEILT,not soluble
7,MAHHHHHHMKKKGCHSDRKHCQKHVQAELCLFILHSVLRKCPNKMVHSILQNSHGNIRKKFEISLKHETSTPAPQKRRREVLLKRKTNSKRGNRA,not soluble
8,MAHHHHHHMKKNFPQSYNFFPLTWILPNEISDFKNYFKKESGSKTYIVKLKNSCQGKGIYLTKTLDNINKYDSCVIQKYIHKPLLINGLKFDIRLYVLVTGCDPLRIFLHEDGLVRFSIEKYKLPKSKNLKQVNMHLTNFSINKKSDKFENSPNPDDATMGHKRSWKAFLQKLKEEGLPMDSVMKRIEHMIVKTICSIQPELKHYYNSAHISDYSNSMCFEVLGFDILLDYKLKPWLLEVNHSPSFATSSLVDEKVKYAVIRDTLNMLYMHSKYRHIHIQEYLNLQKFRKKYSDVL,not soluble
9,MAHHHHHHMKRENVSFPHAQSNVVSNLDGNTLLNDSLVQQSCSPTESKEDVKTEYDSFVDAPVIPLTEKFDDNYSQPVSTVNPRDDSIKCEMDVLPASSLTSVCNRKVIHGEKVDNDRVKIVRDWLLMPVLSQDSDFEGDGDDFIDTLLHIAEDKMYLYGFYERLGQTELVTTRRINNRKRSRGSNGISHATGNQGAQAPVMATSPPQVLPFSFVNWLPNSGKGRCDPERVHQQTISSDAILCSGEKYTLCRYALSSGKLRKECADPYQFLTAKLQEIRHCMEEELMGDAKNSNEKKTGVTDY,not soluble
10,MAHHHHHHMKWSAVCLLKRDFDAWAYSINWPQRKSHLPLLGSVSLTVEDIKFAYNAWCLLRLAMFFGTGHPKILSPLVNTTPSMDIMYGGNRLFYMHAEVGASLSRHKPKVALTPSHPDAQPVQSFPWRKVIREAGERRTGNEDCDGGVEIVLGMENGLSENVVSQCDYCLYIPQYGSIGSLSMISAMAIALHSAASAHVDQYMRDDDRVSPCSSRGHMPLSNGSLKVTKGNNLPHETNLLSLSNVEIAEILRARRMSYPMQLSVMVYNEFGDRNIGAIMRNANVFNCEQMIVLHRRKFNRRGALGTQHLIKTLFCSGVDDAQCQKSLEGYTIWLLYQYYPYLKIYEDPNGDEDATFIRPESTLLQEWLQGSYGMNPDHPMMNFHASHMIGTDVYLDDSDSVHAAVRHAANEGYRGIVLVVPEEGASFQRDIVKKARRIAYVVHPDRLARNVQRGLNGALSSAIALERLRTAIDGLQ,not soluble
11,MAHHHHHHMLETQHLHTHSGRLIPPPPRRTPRRKSSVCRTPTRRHNPAESGLSASSKTTRSDVYECRMAPVRGRRESHDSTPGRPRAPEDVNYARGRSMNERPAPSKPQCAIPSKNGRLEESRASTLAVDRERFSQTRWGRSDEIISQSPLAGRSHSLREGEFCDPQALTMRLRHSLSRGYSPQCGHPTQAVVGTELAPPMPRLQGAYGTSKNRYRKTIERFIECQPTNTQKEMQSMLEEYRGRENELCEALSVAYSDSWEASVRGNDTIIQSHKNDNCSKFALNESPGMPEMKDFPRVGNGKGHFDSMNNGECNHNATAENHRQRMTKPTSSSHSTPSRFQDSHQNVDCLRSFSDVATPRRNEGINLSKSAEKERYDEDTSPHLRNGSSGGVNVPLSLGIILEQGETSPRSGGMLTPPIPADLLAR,not soluble
12,MAHHHHHHMLKKFSPLSFMVLQKRYNKSEQKIFDKIKNIINSNKNLRHTDDEKDKIEIINIDNEIINKENISFKCNIINEDSTKNENKKDNIDEMTNVNIYDDYFNINDEYNNVMSNDNDNVDIKSFIRETVDYYKSLQLKKKEDHLNVLNVKKKDYSNIKEYYNKNEEIKEIVQDNNFIWNNKNYDKKNIHSGFHSDIIYYDNYDTTKSKHNQNIQNGQNIQNGQNIQNGQNIQNNQNNQNIQNIQNNQNNQHCHNSTHEKNCGSYNFLTPAQVFFENNKEKLIQESYKYYKERENNINKEDYLYDENEGYYNYANMKTPIIRPNDKEGFLFNYEDDDYNNNDDEGEDDMTLEKGIMPTIEQIVCILKHEKVKDIKVIDLDKCGRRDIGMFLILCTGNTAKHNKKVGKLISKIFIDLEIPYISNVVYCYCNKFDDWIITHCGPLKINIVTKELRNLYDIENLFLYPHEHFDSTNFPSFFDYTPGIPPPYLVRSNASMDSYKNDDIYTKFLTEK,not soluble
